Data on 84 variants can be found in the RNAGym collection of RNA variant scans (doi:10.1021/acssynbio.7b00057).

To fix the notation:
B1: Pistol ribozyme (parent)
chain: GGGUCGUUGUUCCAUAAUCGCGUGGAUAUGGCACGCAAGUUUCUACCGGGCACCGUAAAUGUCCGACUGGAGCCGUUCGGGCGGCUAUAAACAGACCUCAGGCCCGAAGCGUGGCGGCACCUGCCGCCGGUGGUAAAAAAGAUCGGAAGAGCACACGUCU

The variants in the data set derive from B1. Put plainly: aptazyme ON/OFF ratio, guanine; higher = stronger switching; co-transcriptional cleavage with and without guanine.
Take U7C U8G G9C U10C C12U: the “aptazyme ON/OFF ratio” value is 1.27.
Next, U7C U8G G9C C12A C13G: 1.09.
The same measure for U7C U8G G9C C12A C13A: 1.21; for U7C U8G G9C C12A C13U: 1.31.
For the variant U7C U8G G9C U10A C12U C13A, the “aptazyme ON/OFF ratio” value came out at 1.21.
Turning to U7C U8G G9C U10A C12U C13G, the “aptazyme ON/OFF ratio” value was determined as 1.13.
Regarding U7C U8G G9C U10A C12U C13U, the “aptazyme ON/OFF ratio” value came to 1.05.
Next, U7C U8G G9C U10A U11C C12G: 1.15; U7C U8G G9C U10A U11C C12A: 1.19.
Turning to U7C U8G G9C U10A U11C C12U, the “aptazyme ON/OFF ratio” value came out at 1.05.
As for U7C U8G G9A U10G, the “aptazyme ON/OFF ratio” value came to 2.11.
The same measure for U7C U8G G9C U10G U11C C12U C13U: 1.21; for U7C U8G G9C U10G U11C C12U C13G: 1.25; for U7C U8G G9C U10G U11C C12U C13A: 1.26.
U7C U8G G9C U10G C12U C13U: the “aptazyme ON/OFF ratio” value is 1.35.
Next, U7C U8G G9C U10G C12U C13G: 1.14; U7C U8G G9C U10G C12U C13A: 1.24; U7C U8G G9A U11C C13G: 1.02.
Regarding U7C U8G G9A U11C C13A, the “aptazyme ON/OFF ratio” value amounted to 1.04.
On to U7C U8G G9A U11C C13U, for which the “aptazyme ON/OFF ratio” value is 1.05.
Next, U7C U8G G9A U10G U11C C12G C13U: 1.19; U7C U8G G9A U10G U11C C12G C13G: 1.41.
Next, U7C U8G G9A U10G U11C C12G C13A: 1.2; U7C U8G G9C C12U C13U: 1.2.
As to U7C U8G G9C C12U C13G, the “aptazyme ON/OFF ratio” value was determined as 1.07.
The same measure for U7C U8G G9C C12U C13A: 1.16; for U7C U8G G9C U10G U11C C12A: 1.24.
As to U7C U8G G9C U10G U11C C12G, the “aptazyme ON/OFF ratio” value was found to be 1.25.
For the variant U7C U8G G9C U10G U11C C12U, the “aptazyme ON/OFF ratio” value worked out at 1.07.
Turning to U7C U8G G9C U10C U11A C13U, the “aptazyme ON/OFF ratio” value came out at 1.21.
The same measure for U7C U8G G9C U10C U11A C13A: 1.21; for U7C U8G G9C U10C U11A C13G: 1.23.
Next, U7C U8G G9C C12G C13G: 1.12.
For U7C U8G G9C C12G C13A, the “aptazyme ON/OFF ratio” value came out at 1.27.
The same measure for U7C U8G G9C C12G C13U: 1.18; for U7C U8G G9A U11C C12U: 1.11; for U7C U8G G9A U11C C12A: 1.1.
Next, U7C U8G G9A U11C C12G: 1.11.
For U7C U8G G9C U10A C12G C13U, the “aptazyme ON/OFF ratio” value worked out at 1.19.
The same measure for U7C U8G G9C U10A C12G C13A: 1.2.
For the variant U7C U8G G9C U10A C12G C13G, the “aptazyme ON/OFF ratio” value was found to be 1.2.
Next, U7C U8G G9A U10G U11G C13A: 1.2.
Next, U7C U8G G9A U10G U11G C13U: 1.19; U7C U8G G9A U10G U11G C13G: 1.39.
Take U7C U8G G9C U10C U11C C12A: the “aptazyme ON/OFF ratio” value was found to be 1.04.
Consider U7C U8G G9C U10C U11C C12G, for which the “aptazyme ON/OFF ratio” value was 1.05.
As to U7C U8G G9C U10C U11C C12U, the “aptazyme ON/OFF ratio” value turned out to be 1.04.
The same measure for U7C U8G G9A U11G C13U: 1.13; for U7C U8G G9A U11G C13A: 1.21.
For U7C U8G G9A U11G C13G, the “aptazyme ON/OFF ratio” value is 1.03.
U7C U8G G9C U10C U11G: the “aptazyme ON/OFF ratio” value was 1.16.
The same measure for U7C U8G G9C U10C U11C: 1.04; for U7C U8G G9C U10C U11A: 0.99.
Next, U7C U8G G9C U10C U11G C12G C13G: 1.09; U7C U8G G9C U10C U11G C12G C13U: 1.05; U7C U8G G9C U10C U11G C12G C13A: 1.12.
Consider U7C U8G G9A U10G U11A C13G, for which the “aptazyme ON/OFF ratio” value came to 1.1.
With U7C U8G G9A U10G U11A C13U, the “aptazyme ON/OFF ratio” value is 1.04.
Next, U7C U8G G9A U10G U11A C13A: 1.09.
Next, U7C U8G G9A U10C U11G: 1.23.
Next, U7C U8G G9A U10G U11A C12G: 1.24.
In the case of U7C U8G G9A U10G U11A C12A, the “aptazyme ON/OFF ratio” value came to 1.47.
The same measure for U7C U8G G9A U10G U11A C12U: 1.16; for U7C U8G G9A U11G C12U C13U: 1.27; for U7C U8G G9A U11G C12U C13A: 1.27.
The same measure for U7C U8G G9A U11G C12U C13G: 1.29; for U7C U8G G9C U10G U11C C12A C13G: 1.16.
The same measure for U7C U8G G9C U10G U11C C12A C13A: 1.31.
For U7C U8G G9C U10G U11C C12A C13U, the “aptazyme ON/OFF ratio” value was 1.35.
Next, U7C U8G G9C U10C U11C C12U C13A: 1.04.
The same measure for U7C U8G G9C U10C U11C C12U C13U: 1.03; for U7C U8G G9C U10C U11C C12U C13G: 1.04; for U7C U8G G9C U10A U11G C12G C13U: 1.18.
The same measure for U7C U8G G9C U10A U11G C12G C13A: 1.31.
As to U7C U8G G9C U10A U11G C12G C13G, the “aptazyme ON/OFF ratio” value was 1.16.
Take U7C U8G G9C U10C U11A C12G C13G: the “aptazyme ON/OFF ratio” value stood at 1.17.
As to U7C U8G G9C U10C U11A C12G C13A, the “aptazyme ON/OFF ratio” value amounted to 1.1.
The same measure for U7C U8G G9C U10C U11A C12G C13U: 1.12; for U7C U8G G9C U10A U11G C13U: 1.18.
Take U7C U8G G9C U10A U11G C13A: the “aptazyme ON/OFF ratio” value is 1.19.
The same measure for U7C U8G G9C U10A U11G C13G: 1.03.
Next, U7C U8G G9C U10A C13G: 1.08; U7C U8G G9C U10A C13A: 1.14; U7C U8G G9C U10A C13U: 1.15.
